In paper PMC7242879, “Exploring the Molecular Basis for Substrate Affinity and Structural Stability in Bacterial GH39 β-Xylosidases” (Frontiers in Bioengineering and Biotechnology, 2020) one finds Km, kcat and kcat/Km data, which are given here for one substance.

This series concerns O=[N+]([O-])c1ccc(O[C@@H]2OC[C@@H](O)[C@H](O)[C@H]2O)cc1. The series can be described thus: purified protein. The settings on record: McIlvaine buffer 50 mM pH 5.5, 40 °C, 0.1–25 mM substrate, 13.6 μM enzyme, 15 min.

As to “XacXynB (Xanthomonas citri subsp. citri 306)”, the Km came to 1930 ± 250 µM, the kcat turned out to be 4.43 ± 0.142 s⁻¹ and the kcat/Km stood at 2300 M⁻¹ s⁻¹.
